Assay results from patent publication US20190381186A1 (TRUSTEES OF BOSTON UNIVERSITY, published 2019).

B1: docking peptide MK(LEEIVSE)2LEEIVTELEEIVSEVGER (peptide)
peptide: MKLEEIVSELEEIVSELEEIVTELEEIVSEVGER
notes: also called V/E peptide
B2: receiving peptide MK(LKKIKSV)4VGER (peptide)
peptide: MKLKKIKSVLKKIKSVLKKIKSVLKKIKSVVGER
notes: With the docking peptide it is said to form a tetramer of two peptides of each type; also called V/K peptide

Legend:
[1] = biological target: the molecule itself; assay: circular dichroism spectra, 200-260 nm
[2] = biological target: B2; assay: isothermal titration calorimetry (FIG. 2C); ITC, docking peptide with receiving peptide (FIG. 2C)

B1
binding result [1]: no binding (tested: 100 µM)
Kd [2]: 62 nM

B2
binding result [1]: no binding (tested: 100 µM)
